PMC1635294
Read-outs that look alike come from different tables or passages of the source.

Tests used:
SLBP (HBP), His-tagged [1] = target: T1, SLBP (HBP), His-tagged (human, UniProt Q14493 1-270); assay: competition
SLBP (HBP), His-tagged [2] = target: T1, SLBP (HBP), His-tagged; assay: competition; remark: listed apart in the source

| Binder | binding result (SLBP (HBP), His-tagged [1]) | binding result (SLBP (HBP), His-tagged [2]) |
| --- | --- | --- |
| GGAGCUCAACAAAAGGCCCUUUUCAGGGCCACCC (structured_RNA) [wild-type stem-loop competitor] | binds |  |
| GGAGCUCAACAAAACCGGAAAGCCUUCCGGACCC (structured_RNA) [mutated stem-loop competitor (*)] |  | no binding |
